For the experiment, the target named is active IL-18 protein (human IL-18, positions 37 to 193), expressed and purified in E. coli (human) (UniProt Q14116). As to the kind of experiment: capillary western immunoassay (Wes), primary antibody at 1:25 dilution (16 μg/mL).
UniProt Q14116, sequence (Q14116 37-193 limits assumed): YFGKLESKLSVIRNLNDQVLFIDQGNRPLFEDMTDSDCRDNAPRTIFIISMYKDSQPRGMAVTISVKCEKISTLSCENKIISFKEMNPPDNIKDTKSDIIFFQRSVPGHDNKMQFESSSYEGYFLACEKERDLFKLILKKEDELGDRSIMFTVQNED

Take “commercially available anti-IL-18 antibody D043-3: clone 25-2G”: the concentration of IL-18 protein detectable was found to be 100 ng/mL.

The values above are taken from patent WO2019194217A1.
